Reference: patent US20120115880A1 (ST JUDE CHILDREN S RESEARCH HOSPITAL, published 2012)

How the values were obtained:
[1] = biological target: T1, recombinant MDM2 (amino acid residues 1-188) GST fusion protein (UniProt Q00987 1-188); experiment: fluorescence polarization assay with recombinant GST-MDM2 (1-188)
T1 construct: range 1-188; Expressed in E. coli BL21(DE3) from pGEX-4-T-1 and eluted as a GST fusion; GST is placed N-terminally by the usual layout of the vector; not shown: glutathione S-transferase tag encoded by pGEX-4-T-1
T1 sequence (Q00987 1-188): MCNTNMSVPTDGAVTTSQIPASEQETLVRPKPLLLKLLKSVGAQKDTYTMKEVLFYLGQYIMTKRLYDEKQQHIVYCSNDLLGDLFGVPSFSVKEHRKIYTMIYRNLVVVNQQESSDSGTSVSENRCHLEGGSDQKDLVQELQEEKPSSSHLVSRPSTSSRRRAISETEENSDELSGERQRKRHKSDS
Method: (§1) Kd's and Kᵢ's were calculated by fitting the data to a single-site binding mode with variable slope (Y=Bottom+(Top−Bottom)/(1+10̂((LogEC50-X)*HillSlope))) using […] PRISM software.

[2] = biological target: T2, recombinant MDMX (amino acid residues 1-185) GST fusion protein (UniProt O15151 1-185); experiment: fluorescence polarization assay with recombinant GST-MDMX (1-185)
T2 construct: range 1-185; Expressed in E. coli BL21(DE3) from pGEX-4-T-1 and eluted as a GST fusion; GST is placed N-terminally by the usual layout of the vector; also called MDMX-GST; not shown: glutathione S-transferase tag encoded by pGEX-4-T-1
T2 sequence (looked up): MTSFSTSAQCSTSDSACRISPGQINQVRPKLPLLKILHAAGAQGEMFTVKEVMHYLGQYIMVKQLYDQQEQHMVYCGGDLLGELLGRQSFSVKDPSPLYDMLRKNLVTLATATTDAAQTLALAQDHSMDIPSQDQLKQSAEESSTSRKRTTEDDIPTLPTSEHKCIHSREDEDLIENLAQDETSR
Method: as §1

binding result [1]: no binding
binding result [2]: no binding
Binder: H-GSGSSQETASDLAKLAPEN-OH
